In patent US20190359711A1 one finds Kd data, which are given here for one substance.

The target in the experiment is CD3 on human pan T cells (human) (UniProt P07766). In words: flow cytometry, saturation binding on human pan T cells (KdT). (In flow cytometry, cells or beads pass a laser one at a time.)
Chain of CD3 on human pan T cells (human) (P07766 23-207 limits assumed): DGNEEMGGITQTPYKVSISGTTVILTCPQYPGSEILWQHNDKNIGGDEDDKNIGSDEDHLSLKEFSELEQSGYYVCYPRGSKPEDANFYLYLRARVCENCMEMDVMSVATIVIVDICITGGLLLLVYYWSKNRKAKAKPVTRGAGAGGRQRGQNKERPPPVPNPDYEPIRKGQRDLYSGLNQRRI

A word on the Kd: it is a measure of binding affinity in units of concentration. A higher Kd goes with lower affinity. “AlexaFluor488 SP34-2 anti-CD3 (antibody)” came in with a Kd of 5.6 nM.
